Assay [1] has as its target Crb2(67–85) peptide, unphosphorylated (S. pombe) (UniProt P87074). Nature of the assay: pull-down; Same peptide pull-down repeated; eluates and serial dilutions of Chk1-YFH input examined by immunoblotting with an anti-GFP antibody. A general note: Immunoblotting shows a protein as a band on a membrane.
For assay [2], the target named is Crb2(67–85)pS80 peptide (S. pombe) (UniProt P87074). Described as above.
The target in assay [3] is Crb2(67–85)pT73 peptide (S. pombe) (UniProt P87074). The assay is described as above.
In assay [4] the target is Crb2(67–85)pT73pS80 peptide (S. pombe) (UniProt P87074). The assay is described as above.
Assay [5] shares this target. The assay is described as follows: pull-down; Eluted Chk1-YFH incubated with 2 µg biotin-labeled peptide at 4°C for 2 h, peptides captured on streptavidin Dynabeads M-280, washed with lysis buffer (50 mM Hepes pH 7.5, 100 mM NaCl, 1 mM EDTA, 10% glycerol, 0.05% NP-40); eluates and input on 4%–20% SDS-PAGE, Coomassie staining.
The next assay addresses Chk1 (UniProt P34208). Nature of the assay: biotin-peptide streptavidin pull-down, Coomassie or immunoblot.
A further assay has as its target T1, His-GST-Crb2(521–778) (S. pombe, UniProt P87074 521-778).
T1 construct: Crb2, S. pombe, residues 521-778 (the BRCT domains); also called BRCTs in Crb2; source: E. coli, purified with Ni-NTA beads; not shown: His, N-terminal, kept; GST, N-terminal, kept
T1 sequence (looked up): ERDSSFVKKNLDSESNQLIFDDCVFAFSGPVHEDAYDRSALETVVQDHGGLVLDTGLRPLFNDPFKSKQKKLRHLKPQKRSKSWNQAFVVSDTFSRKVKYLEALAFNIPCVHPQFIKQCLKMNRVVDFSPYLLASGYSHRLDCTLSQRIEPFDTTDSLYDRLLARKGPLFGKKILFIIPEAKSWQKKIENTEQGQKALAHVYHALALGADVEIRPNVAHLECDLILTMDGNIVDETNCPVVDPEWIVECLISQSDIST
Nature of the assay: pull-down; His-GST-Crb2(521–778) incubated with H2A peptides, peptides pulled down by streptavidin Dynabeads, eluted by boiling in SDS loading buffer; 4%–20% SDS-PAGE, Coomassie staining. The note with it: both partners purified.

Here are results for five molecules from article PMC3390401, “Phosphorylation-Dependent Interactions between Crb2 and Chk1 Are Essential for DNA Damage Checkpoint” (PLoS Genetics, 2012).

Non-standard residues stand in square brackets, D forms with d. No end group written: not given here. pS = N[C@@H](COP(=O)(O)O)C(=O)O

Turning to “YFP-Flag-His6 (YFH)-tagged Chk1 (from UniProt P34208 1-496) (enzyme)”, the percent of input pulled down (% of the input) in assay [1] is under 0.08; in assay [2], 1; in assay [3], 7; in assay [4], 7; in assay [5] it was over 5.

For the molecule “Crb2 67-85 (from UniProt P87074) pT73pS80 peptide”, the “other: share of Chk1 input pulled down” value in the assay with Chk1 (reference: pS80 peptide, sites T73) is on record as “stronger; reference about 1%”; with Chk1 (reference: pT73 peptide, sites S80), “same; reference about 7%”.

On to “Crb2 67-85 (from UniProt P87074) pS80 peptide”, for which, in the assay with Chk1 (reference: unphosphorylated peptide, sites S80), the “other: share of Chk1 input pulled down” value is given as “gained; reference lower than 0.08%”.

Consider “Crb2 67-85 (from UniProt P87074) pT73 peptide”, for which, in the assay with Chk1 (reference: unphosphorylated peptide, sites T73), the “other: share of Chk1 input pulled down” value is on record as “gained; reference lower than 0.08%”.

B1: Hta1(120–132-pS129) peptide (peptide, UniProt P04909 120-132, looked up)
peptide: KTSGRTGKP[pS]QEL
notes: Histone H2A Hta1, S. pombe, residues 120-132; also called γH2A peptide; phosphorylated histone H2A peptide
Take B1: the binding result with His-GST-Crb2(521–778) is “binds”.
